Reference: a protein production outcome set (Wang et al. 2014)

Experiment: label from the status in PepcDB records
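Further: failed if final PepcDB status was selected cloned or expressed and not failed if soluble or beyond.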

Sequence | protein production
MIRVLFAFIILLLSVFLGIQLNKDPGYVLIAINNWTIETTLWVSVFGLFFLFFLIYGLVQFCNKITRMPGMVNKWHSRRLAQKAQATTRKGLIEYSEGYWQKAKNHLIQALPNTDTPLLNYLTAARAAQKMGDSKLRDHYLREAQQSMPEAKIAVELTQAQLQLANHQWEQALATLKHLQDLAPRHPYVLKLLMNLYEEIKDWQQLIALLPDLKKNHIISDQAFEQLQKNTYLQAMIDLAKHNQSDGITKLYQTLPKTLVNDTAITAEYARFLIRNQDYDQAEYHLKRCLRKELDNRLIELYSLLPCEENQLLFAESLLKKNPHSAALYLCLGRMCLSRHLWGKAKHYLEQSIELNPTPVAFIELGKLHEKLNDPLSSGSCYKKGLELITKDELS | failed
MSLTLLKGRRKVDTIKVGILGYGLSGSVFHGPLLDVLDEYQISKIMTSRTEEVKRDFPDAEVVHELEEITNDPAIELVIVTTPSGLHYEHTMACIQAGKHVVMEKPMTATAEEGETLKRAADEKGVLLSVYHNRRWDNDFLTIKKLISEGSLEDINTYQVSYNRYRPEVQARWREKEGTATGTLYDLGSHIIDQTLHLFGMPKAVTANVMAQRENAETVDYFHLTLDYGKLQAILYGGSIVPANGPRYQIHGKDSSFIKYGIDGQEDALRAGRKPEDDSWGADVPEFYGKLTTIRGSDKKTETIPSVNGSYLTYYRKIAESIREGAALPVTAEEGINVIRIIEAAMESSKEKRTIMLEHEGHHHHHH | not failed
MVKGKVINLHPTSSRFFKIGIKHYERGEIELAIERLKRALELDSKNIEIKFNLAGLLAQIGDFESSNKLLTELTTDNPEFYDSLFGLGCNFFEMGKLREAKHFLRRYLKLSNNTEFKEAAEDLLDFIETQQEFEREQKEMEKLTKLLERGNFLLENGRYEDAVKYFKMILAKDDTIFAARNNLSLAYFYMGEIEKAIHEAKKVLEIDKYNVYANCNLAFFYSTIGKTKELKKQLKTILELKTYDHKDKIKVLDTLIKLNQHAAIVDRAGELFEITKEPYFRHIQAISLYNTKQYIKAKKIWKDLKKNYNMPEIKIDYFLKKIDDVMKTFKKDTIDYFETGFGNLSKLEEKEFRSQLQKHIDMYFSQTFEENAKRIMDIIAENVKLNNEDKDAISQLLNALPLEKQRLNFTAIAAIVYYVYKKYLLRQKVKQKDVAERFGISQAVFSKWFKEFKGLLLGEDV | failed
MKPLKEVVGAYLALSDAQRQLVAGEYDEAAANCRRAMEISHTMPPEEAFDHAGFDAFCHAGLAEALAGLRSFDEALHSADKALHYFNRRGELNQDEGKLWISAVYSRALALDGLGRGAEAMPEFKKVVEMIEERKGETPGKERMMEVAIDRIAQLGAS | not failed
AQNEKNMYSYKKIGNKYIVSINNHTEIVKALNAFCKEKGILSGSINGIGAIGELTLRFFNPKTKAYDDKTFREQMEISNLTGNISSMNEQVYLHLHITVGRSDYSALAGHLLSAIQNGAGEFVVEDYSERISRTYNPDLGLNIYDFER | not failed
MTSVMPFAHLLLALLVVFVWGINFIFVKLSLEEFSPLLLCAVRFLLASVPAVFFIKPPAVPFKIIASYGLIMFALQFALLFIGLRVGMTPGVASLLMQVQVFFSMFFAIIFLGEQPQVGQIIGALIAFIGIGVVALHFDHNVSLMGFLCILAAAASWGIGNLITKKIHSVNLIAVIVWSSFVACLPMFILSLVFEGPESFVTAYEHMTWKGILSVLYIVYISTWVGYGVWNWLISRYPVGMVVPFTLLVPVVGILSSVLILGEPFYLWKLVAGLLVISGLCINLLTTRLFVAKTQQPETA | failed
AQTPAQPQGKGIFQSVSEAIDAAHQAFLRYQQCPLKTRSAIISAMRQELTPLLATLAEESANETGMGNKEDKFLKNKAALDNTPGVEDLTTTALTGDGGMVLFEYSPFGVIGSVAPSTNPTETIINNSISMLAAGNSIYFSPHPGAKKVSLKLISLIEEIAFRCCGIRNLVVTVAEPTFEATQQMMAHPRIAVLAITGGPGIVAMGMKSGKKVIGAGNPPCIVDETADLVKAAEDIINGASFDYNLPCIAE | failed
APIPERAQVSVPGPVRVVDFDTPQSVALFVQPGIDRDDPDFFTAYILNHIIGGGGFESRLMQEVREKRGLTYGVYSYLLPKDLASIYMGSVASANDKIAEAVNVIRDVWRDVAANGVTAKELEDAKTYLTGAYPLRFDGNGRIANILAGMQIQGLPIDYIATRNDQVNAVTLEEINTFAAGFLDPEGLSFTVVGKPVGL | failed
MEKILDLLMSFVKEDEGKLDLASFPLRNTTAGAHLLLKTENVVASGIEVSRMFLEKMGLLSKFNVEDGEYLEGTGVIGEIEGNTYKLLVAERTLLNVLSVMFSVATTTRRFAEKLKHAKIAATRKILPGLGVLQKIAVVHGGGDPHRLDLSGCVMIKDNHLKMYGSAERAVQEVRKIIPFTTKIEVEVENLEDALRAVEAGADIVMLDNLSPEEVKDISRRIKDINPNVIVEVSGGITEENVSLYDFETVDVISSSRLTLQEVFVDLSLEIQR | not failed
QHDSSRKLGLLQEMIGGGWWRYWAEQELFELAPALHDSLGLTGEYRRVPLEHLQGLLQPADADELGLRLRASLRSGQALAQDLCLRQPDSRGERRWLRIEGRPLGRGSALGLSGVLLDISEGRRQEER | failed
MLEHLIKISRRNWSSLKVIILAGGRGKRITLFKPFLVVCGKPLISWAFDAVNKLSDKVYLGINQSHPLFTIFKHSIFKIFPTPDISYENDVKYVVESLGPPILVLPVDIAFINNNIINNLIERCAVDMCTLKSYGSYLGVTYWTGLNFSNYTDIEVKEKLYNINTWEDYIKANKECNILLEHHHHHH | not failed
MATTLPRITARVDVDTQDLLAKAAALAGMSSINSFVLNAAIEKAKQVIEREQALKLSQADAVLLMEALDNPAVVNAKLKLASERYESKTQ | failed
MKLKTKTMEWSGNSLKLLDQRKLPFIEEYVECKTHEEVAHAIKEMIVRGAPAIGVAAAFGYVLGLRDYKTGSLTDWMKQVKETLARTRPTAVNLFWALNRMEKVFFENADRENLFEILENEALKMAYEDIEVNKAIGKNGAQLIKDGSTILTHCNAGALATVDYGTALGVIRAAVESGKRIRVFADETRPYLQGARLTAWELMKDGIEVYVITDNMAGWLMKRGLIDAVVVGADRIALNGDTANKIGTYSLAVLAKRNNIPFYVAAPVSTIDPTIRSGEEIPIEERRPEEVTHCGGNRIAPEGVKVLNPAFDVTENTLITAIITEKGVIRPPFEENIKKILEV | not failed
MELPAVGEHVFAVESIEKKRIRKGRVEYLVKWRGWSPKYNTWEPEENILDPRLLIAFQNRERQEQLMGYRKRGPKPKPLVVQVPTFARRSNVLTGLQDSSTDNRAKLDLGAQGKGQGHQYELNSKKHHQYQPHSKERAGKPPPPGKSGKYYYQLNSKKHHPYQPDPKMYDLQYQGGHKEAPSPTCPDLGAKSHPPDKWAQGAGAKGYLGAVKPLAGAAGAPGKGSEKGPPNGMMPAPKEAVTGNGIGGKMKIVKNKNKNGRIVIVMSKYMENGMQAVKIKSGEVAEGEARSPSHKKRAADERHPPADRTFKKAAGAEEKKVEAPPKRREEEVSGVSDPQPQDAGSRKLSPTKEAFGEQPLQLTTKPDLLAWDPARNTHPPSHHPHPHPHHHHHHHHHHHHAVGLNLSHVRKRCLSETHGEREPCKKRLTARSISTPTCLGGSPAAERPADLPPAAALPQPEVILLDSDLDEPIDLRCVKTRSEAGEPPSSLQVKPETPASAAVAVAAAAAPTTTAEKPPAEAQDEPAESLSEFKPFFGNIIITDVTANCLTVTFKEYVTV | failed
MAEKTYSGFVAIVGKPNVGKSTLLNNLLGVKVAPISPRPQTTRKRLRGILTEGRRQIVFVDTPGLHKPMDALGEFMDQEVYEALADVNAVVWVVDLRHPPTPEDELVARALKPLVGKVPILLVGNKLDAAKYPEEAMKAYHELLPEAEPRMLSALDERQVAELKADLLALMPEGPFFYPEDYAKSDQTFGEWVAEILREEAMKRLWHEVPYAVATKVEEVAERENGVLYIKAILYVERPSQKAIVIGEGGRKIKEIGQATRKQLEALLGKKVYLDLEVKVYPDWRKDPEALRELGYRSSVG | not failed
MLKHLDRSKKGKVARSFLQAISKDEAVAPPLRVVQIEGLAVLKIIKHCKEFSPTLVTGQLLGLDVGSVLEVTNCFPFPVRDDDEEIEADGANYQLEMMRCLREVNVDNNTVGWYQSTVLGSYQTVELIETFMNYQENIKRCVCIIYDPSKADLGVLALKALKLSDSFMELYRGGNFTGEKLREKNFSWMDIFEEIPIKVSNSALVSAFMTELETDTPVSQGDYDRLHSSTTPFLENNMEFLIKCMDDLSMEQQKFQYYYRNLSRQQAQQQAWLQKRRTENMARKSAGEEPLPEEDPSNPIFKAIPEPSRLESFLITNQVSNFCGQINGVAGQNFSRLYLTKALHDN | failed
MQFGVTKESQCHYLTDQEERLVVALPNDLENLNADAYQQLMQYGFRRSHNDVYRPHCRLCSACQSLRVVVPEFRFSKNQKRILKKNDDLTLQIKQQPEAEYSQLFSQFIEQRHADGEMYPPDPDKFWKWIDCDWLTPELLEWRNASNELMIVSVVDRTVDAMSAVYTFFHPDEEKRSPGTFAVLEMIRLAQEREVARLYLGYQIDDCKKMNYKTRFAPYERLVGNHWKKELKSHTLKAQNKD | failed
MSTSTSCPIPGGRDQLPDCYSTTPGGTLYATTPGGTRIIYDRKFLLECKNSPIARTPPCCLPQIPGVTTPPTAPLSKLEELKEQETEEEIPDDAQFEMDI | failed
VKLVEEYIAANWNESLTIEKLVELTGMSARTVFKAFQRTRGYSPMAFAKRVRMERVRQLLLEAGGDASVGAIAVQCGFPHLGHFAKDYRKTFGENPSDTLARGRRFRGVR | not failed
MSLEFFMAKADNPAFEQGQSPRMRLPDSVPLLIVGGGIMGLWAAVKAERLGIGTLLVEAGRLGGGASGGLLGALMPHMPDRWSDKKQFQFDALVALEAEIAGLEAETGLSGGYRRCGRIIPLPKPHLRGIAERHERDAAENWRSGERRFQWHVGERPSVAGWVDDAAGEAGFVFDTLAARVSPRALIALLSAFLRKARHVQVAEGCRVVSLDADAGRAALSSGEEISFGHVVVANGHESFPLIRDALGLEAGVALGQAVKGQAALLDASADPAMPVVFLNGLYIVPHEDGTVAIGSTSEDCFSEPFSTDEKLEKLLVDACTVVPSLAGAPVLERWAGLRPKAVGRDPMVGAMAGTAKLVALSGGFKVSFGLAHFLADAALETVCGHTPVIPSGFRLQEHVSIAVPDFRKFLEHHHHHH | failed
MDADNTAHLIYLSLLGAALVFWFISHNRASLGKTLQMALAWVFIFVGVIAVVGLWGDIRSTVAGTPRISVSENRVEIPRSPDGHYYATLIIEDKPLRFLVDTGASQVVLSHADAERLGIDTSALNYFGRAYTANGEVRTAPVKLGRVQLGGFTDQGVTAWVNEGEMSESLLGMDYLQRFRSIEIAGGTLVLAR | failed
LYPILIGIYASVIPFYIALYSTFRLLSYIDENKAFSQISVKALNNIKHCTIAISILYMATMPFVYLLADKDDAPGLIIIGMVPIFASLVISVFSAVLQRLLQEAIDIKSENDLTV | failed
MISTWHKNNNSPRLTVSARIVAKRQNTTYHNQPNAGDTSGAHGYHTTSSTTYYVTFQVESGDRIEMSVSGSEYGKLTEGDEGKLTFQGTRYLQFNMENLEHHHHHH | failed
MGHHHHHHSHMTDCEFGYIYRLAQDYLQCVLQIPQPGSGPSKTSRVLQNVAFSVQKEVEKNLKSCLDNVNVVSVDTARTLFNQVMEKEFEDGIINWGRIVTIFAFEGILIKKLLRQQIAPDVDTYKEISYFVAEFIMNNTGEWIRQNGGWENGFVKKFEPK | not failed
MSVSIAYLAVLLIWSTTPLGIVWSSESINPSLAVLLRMLIALVLGALVIKIRNIHIPWHKQAVKLYSFSALGIFGGMLCSYLSAAYLSSGIISLVFGLSPVISALLAKKILSEPNISGMRKFSMAISLIGLAVVCSDNFTLADDGIYGIIFILMAVFFFSLSGVLVKSVSLAIHPLATTVGALSVATPLFLVSWLLLDGTLPIETWQAKSLWATLYLGVFGSLIGFYAYFTVLQKLSASNVTLITLITPVIALTLGAVLNGEVINDKLILGAFMVLLGLSIYHFGHLLPRLKKKRARS | failed
